Changes are numbered by the printed parent chain. One block for each binder: values may come before it.
What was measured:
[1] = biological target: T1, human CCR2 (human, UniProt P41597 1-374); assay: flow cytometry, HEK293 with N-term FLAG-tagged human CCR2
T1 construct: whole, on cells; transiently expressed on HEK293 cells
Text: (§1) FIGS. 4A-4F depicts the binding data of hu.Ab3.H1L1 (FIG. 4A), hu.Ab4.H1L1 (FIG. 4B), and hu.Ab5.H1L1 (FIG. 4C), as well as the commercial anti-CCR8 mAbs murine anti-human CCR8 mAb 433H (BD Biosciences) (FIG. 4D), and murine anti-human CCR8 mAb L263G8 (Biolegend) (FIG. 4E), and the humanized anti-human Yoshida anti-CCR8 mAb (FIG. 4F), to HEK293 cells that were transiently transfected with N-term FLAG-tagged plasmids encoding for human GPCRs (CCR2, CCR3, CCR4, CCR5, CCR8, CXCR4, ACKR2, and ACKR4), hCCR8 constructs, or with a mock construct using transIT X2 (reagent:DNA=3:1).
(§2) To confirm the selectivity to CCR8, the binding of hu.Ab3.H1L1, hu.Ab4.H1L1, and hu.Ab5.H1L1, as well as the Yoshida humanized anti-human CCR8, murine anti-human CCR8 mAb L263G8 (Biolegend, Commercial Ab) and murine anti-human CCR8 mAb 433H (BD Biosciences, Commercial Ab), were characterized by flow cytometry on HEK293 cells that were transiently transfected with plasmids encoding for FLAG-tagged other related human GPCRs (CCR2-5, CXCR4, ACKR2, and ACKR4). Cell surface expression of each GPCR was confirmed by staining with an anti-FLAG antibody control. In particular, HEK293 cells were transfected with N-term FLAG-tagged human CCR2, CCR3, CCR4, CCR5, CXCR4, ACKR2, ACKR4, hCCR8 constructs, or with a Mock construct using transIT X2 (reagent:DNA=3:1) for 24 hours, and surface stained with various anti-hCCR8 monoclonal antibodies at 5 ug/ml, or rabbit anti-Flag pAb (Sigma) followed by AF647-anti-hIgG or AF647-anti-RbIgG respectively. Antibodies hu.Ab4.H1L1, and hu.Ab5.H1L1, only stained the hCCR8-containing cells, confirming their specificity to hCCR8. […] Thus, the CCR8 selective hu.Ab4.H1L1 and hu.Ab5.H1L1 antibodies with the best ADCC activities were carried forward.

[2] = biological target: T2, human CXCR4 (human, UniProt P61073 1-352); assay: flow cytometry, HEK293 with N-term FLAG-tagged human CXCR4
T2 construct: whole, on cells; transiently expressed on HEK293 cells
Text: as §1
(§3) To confirm the selectivity to CCR8, the binding of hu.Ab3.H1L1, hu.Ab4.H1L1, and hu.Ab5.H1L1, as well as the Yoshida humanized anti-human CCR8, murine anti-human CCR8 mAb L263G8 (Biolegend, Commercial Ab) and murine anti-human CCR8 mAb 433H (BD Biosciences, Commercial Ab), were characterized by flow cytometry on HEK293 cells that were transiently transfected with plasmids encoding for FLAG-tagged other related human GPCRs (CCR2-5, CXCR4, ACKR2, and ACKR4). Cell surface expression of each GPCR was confirmed by staining with an anti-FLAG antibody control. […]

[3] = biological target: T3, cyno CCR8 (cynomolgus monkey, UniProt O97665 1-356 (rhesus entry)); assay: flow cytometry on human and cyno CCR8 CHO cells
T3 construct: also called cynomolgus monkey CCR8

[4] = biological target: T4, human CCR5 (human, UniProt P51681 1-352); assay: flow cytometry, HEK293 with N-term FLAG-tagged human CCR5
T4 construct: whole, on cells; transiently expressed on HEK293 cells
Text: as §1, §3

[5] = biological target: T5, GST-FcgR3a.F158 (UniProt P08637 17-208, limits assumed); assay: ELISA, GST-FcgR3a.F158 captured by anti-GST antibody
T5 construct: Captured by anti-GST antibody on ELISA plate; also called FcgR3a.F158 protein; Fcgamma RIIIa F158; not shown: GST tag
Procedure: The binding of fucosylated and afucosylated variants of hu.Ab5.H13L1 and hu.Ab4.H12L3 to both FcgR3a proteins by ELISA was studied. Briefly, an anti-GST antibody was coated on Nunc Maxisorp plates. GST-FcgR3a.V158 and GST-FcgR3a.F158 were captured at 500 ng/mL. Plates were then washed and then serially diluted anti-CCR8 antibodies starting at 100 ug/mL were incubated on the plate for 1 hour at room temperature. Plates were washed and bound antibody was detected by a HRP-conjugated anti-human IgG secondary antibody. Absorbance at 450 nm was measured by a plate reader. The data were fitted using a 4-parameter logistic curve in Softmax Pro.

[6] = biological target: T2, human CXCR4; assay: flow cytometry, HEK293 with N-term FLAG-tagged human CXCR4, procedure of FIG. 4
Text: as §2
(§4) To reconfirm that the Ab4 and Ab5 variants remained selective to CCR8 compared to the corresponding HIL1 variants, binding was analyzed by flow cytometry following the procedure as described for FIG. 4A and FIG. 4B. […]

[7] = biological target: T6, human ACKR4 (human, UniProt Q9NPB9 1-350); assay: flow cytometry, HEK293 with N-term FLAG-tagged human ACKR4, procedure of FIG. 4
T6 construct: whole, on cells; transiently expressed on HEK293 cells
T6 sequence (looked up): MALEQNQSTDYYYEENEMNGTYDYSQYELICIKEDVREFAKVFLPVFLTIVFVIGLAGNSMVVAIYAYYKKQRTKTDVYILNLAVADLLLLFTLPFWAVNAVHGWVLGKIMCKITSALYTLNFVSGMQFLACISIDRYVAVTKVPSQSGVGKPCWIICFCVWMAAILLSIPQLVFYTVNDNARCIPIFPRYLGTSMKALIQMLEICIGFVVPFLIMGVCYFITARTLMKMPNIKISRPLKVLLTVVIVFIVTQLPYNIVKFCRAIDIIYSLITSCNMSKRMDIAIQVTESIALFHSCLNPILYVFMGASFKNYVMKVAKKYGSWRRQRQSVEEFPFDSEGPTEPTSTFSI
Text: as §2, §4

[8] = biological target: T1, human CCR2; assay: flow cytometry, HEK293 with N-term FLAG-tagged human CCR2, procedure of FIG. 4
Text: as §2, §4

T2 sequence (P61073 whole entry): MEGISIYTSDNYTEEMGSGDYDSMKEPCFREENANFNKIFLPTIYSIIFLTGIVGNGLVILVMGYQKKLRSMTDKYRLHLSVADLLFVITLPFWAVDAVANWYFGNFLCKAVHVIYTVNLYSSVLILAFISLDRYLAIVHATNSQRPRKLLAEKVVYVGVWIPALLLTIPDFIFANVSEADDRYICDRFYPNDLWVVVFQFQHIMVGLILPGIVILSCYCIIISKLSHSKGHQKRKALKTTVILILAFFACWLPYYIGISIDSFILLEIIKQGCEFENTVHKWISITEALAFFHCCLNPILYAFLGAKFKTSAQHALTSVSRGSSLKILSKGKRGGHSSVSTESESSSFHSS
T1 sequence (P41597 whole entry): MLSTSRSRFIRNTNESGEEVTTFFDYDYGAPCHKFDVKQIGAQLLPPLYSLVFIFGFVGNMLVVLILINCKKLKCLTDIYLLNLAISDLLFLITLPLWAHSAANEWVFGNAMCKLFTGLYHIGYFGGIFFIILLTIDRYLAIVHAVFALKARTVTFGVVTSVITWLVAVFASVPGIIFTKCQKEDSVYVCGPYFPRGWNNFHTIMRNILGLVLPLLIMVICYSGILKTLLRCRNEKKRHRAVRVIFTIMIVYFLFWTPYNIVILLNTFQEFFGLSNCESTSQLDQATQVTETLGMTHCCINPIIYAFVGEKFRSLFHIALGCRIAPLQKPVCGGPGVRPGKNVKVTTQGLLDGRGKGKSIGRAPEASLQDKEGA
T3 sequence (O97665 other isoform, or with tags, fused parts or gaps): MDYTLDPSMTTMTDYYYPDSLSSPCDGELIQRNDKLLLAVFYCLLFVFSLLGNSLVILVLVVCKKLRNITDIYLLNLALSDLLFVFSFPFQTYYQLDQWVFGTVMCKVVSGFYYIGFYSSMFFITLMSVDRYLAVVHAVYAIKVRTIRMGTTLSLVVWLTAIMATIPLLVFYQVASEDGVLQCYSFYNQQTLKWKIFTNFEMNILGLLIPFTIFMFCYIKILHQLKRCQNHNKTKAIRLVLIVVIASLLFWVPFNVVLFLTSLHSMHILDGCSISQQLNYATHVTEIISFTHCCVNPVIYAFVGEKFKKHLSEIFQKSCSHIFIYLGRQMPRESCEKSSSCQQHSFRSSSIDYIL
T5 sequence (P08637 17-208 limits assumed): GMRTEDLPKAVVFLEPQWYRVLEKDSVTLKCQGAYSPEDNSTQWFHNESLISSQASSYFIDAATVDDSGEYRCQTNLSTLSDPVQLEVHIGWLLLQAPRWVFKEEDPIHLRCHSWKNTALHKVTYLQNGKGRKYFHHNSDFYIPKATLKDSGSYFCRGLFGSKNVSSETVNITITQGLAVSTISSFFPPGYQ
T4 sequence (P51681 whole entry): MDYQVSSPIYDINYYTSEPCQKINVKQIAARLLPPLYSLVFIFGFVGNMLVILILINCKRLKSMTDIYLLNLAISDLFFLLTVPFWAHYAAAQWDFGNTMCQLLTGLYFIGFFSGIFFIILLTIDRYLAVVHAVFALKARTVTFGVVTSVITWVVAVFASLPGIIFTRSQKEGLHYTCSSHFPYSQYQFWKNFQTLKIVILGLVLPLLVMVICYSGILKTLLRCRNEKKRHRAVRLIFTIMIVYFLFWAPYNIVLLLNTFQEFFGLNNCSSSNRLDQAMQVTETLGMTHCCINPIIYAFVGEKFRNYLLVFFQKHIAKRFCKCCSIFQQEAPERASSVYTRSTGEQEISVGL

binding result [1]: no binding (tested: 5 ug/ml) | binding result [2]: no binding (tested: 5 ug/ml) | binding result [3]: binds | binding result [4]: no binding (tested: 5 ug/ml)
B1: hu.Ab5.H1L1 (antibody, human IgG1, kappa)
heavy: not shown
light: DIQVTQSPSSLSASVGDRVTITCQASENIANALAWYQQKPGKPPKFLIYGASNLASGVPSRFSGSGSGTDFTFTISSLQPEDIATYYCQQAYYGNSFVEGTFGGGTKVEIKRTVAAPSVFIFPPSDEQLKSGTASVVCLLNNFYPREAKVQWKVDNALQSGNSQESVTEQDSKDSTYSLSSTLTLSKADYEKHKVYACEVTHQGLSSPVTKSFNRGEC

EC50 [5]: 4.11 µg/mL | binding result [6]: no binding (tested: 5 ug/ml) | binding result [7]: no binding (tested: 5 ug/ml) | binding result [8]: no binding (tested: 5 ug/ml)
B2: hu.Ab5.H13L1 (antibody, human IgG1, kappa)
heavy: not shown
light: B1 light
notes: fucosylated human IgG1; also called Ab5 variant

binding result [1]: no binding (tested: 5 ug/ml) | binding result [2]: no binding (tested: 5 ug/ml) | binding result [3]: binds | binding result [4]: no binding (tested: 5 ug/ml)
B3: hu.Ab4.H1L1 (antibody, human IgG1, kappa)
heavy: not shown
light: DYQMTQSPSSLSASVGDRVTITCQASQSISSYLSWYQQKPGKRPKLLIYKASTLASGVPSRFSGSGSGTDFTLTISSLQPEDFATYYCQQGYTSSNIDNIFGGGTKVEIKRTVAAPSVFIFPPSDEQLKSGTASVVCLLNNFYPREAKVQWKVDNALQSGNSQESVTEQDSKDSTYSLSSTLTLSKADYEKHKVYACEVTHQGLSSPVTKSFNRGEC
notes: also called hu.Ab4.H1Ll

EC50 [5]: 3.74 µg/mL | binding result [6]: no binding (tested: 5 ug/ml) | binding result [7]: no binding (tested: 5 ug/ml) | binding result [8]: no binding (tested: 5 ug/ml)
B4: hu.Ab4.H12L3 (antibody, human IgG1, kappa)
heavy: not shown
light: B3 light with R43A
notes: fucosylated human IgG1; also called huCCR8-Ab4.H12L3.hIgG1; Ab4 variant
